Reference: paper PMC5663709

Tests used:
[1] = target: recombinant hemagglutinin (HA) trimer of H5N1 A/Vietnam/1203/2004, ectodomain (influenza A virus A/Vietnam/1203/2004 (H5N1)) (UniProt Q6DQ33); test: ELISA
[2] = target: recombinant hemagglutinin (HA) trimer of H1N1 A/California/07/2009, ectodomain (influenza A virus A/California/07/2009 (H1N1)) (UniProt C3W5X2); test: ELISA
[3] = target: cell surface-expressed H3N2 WN/05 HA trimer (influenza A virus A/Wisconsin/67/2005 (H3N2)); test: FACS
[4] = target: recombinant hemagglutinin (HA) trimer of H3N2 A/Wisconsin/67/2005, ectodomain (influenza A virus A/Wisconsin/67/2005 (H3N2)); test: ELISA
[5] = target: recombinant hemagglutinin (HA) trimer of H7N9 A/Anhui/1-BALF_RG17/2013, ectodomain (influenza A virus A/Anhui/1-BALF_RG17/2013 (H7N9)); test: ELISA

Substance | EC50 [1] [µg/mL] | EC50 [2] [µg/mL] | EC50 [3] [µg/mL] | EC50 [4] [µg/mL] | EC50 [5] [µg/mL]
F10 | 0.021 | 0.0122 |  |  | 
CR8020 |  |  | 0.569 | 0.0194 | 
FI6V3 | 0.00648 | 0.0107 | 0.065 | 0.0789 | 0.314
C05 |  |  | 0.13 | 0.00844 | 
